Experimental data published in patent US20230024461A1, “METHODS FOR DUAL DNA/PROTEIN TAGGING OF OPEN CHROMATIN” (Beth Israel Deaconess Medical Center, Inc., priority 2019, published 2023).
“Also recorded” adds a separate entry of the source.

Assays:
[1] = system: GM12878 nuclei; experiment: Peroxidase-mediated biotin labeling after transposition, western blot; assay type: biochemical, human
Description: Western blot. Whole cell lysate was generated by resuspending cells washed with 1×PBS in RIPA (Boston BioProducts) supplemented with 1× complete EDTA-free protease inhibitor cocktail (Roche). Cells were subject to sonication via a Sonic Dismembrator 100 (Fisher Scientific) at setting 2, with 3 pulses of 15 seconds on/off on ice. Lysates were clarified by centrifugation (15,000×g, 30 minutes, 4° C.) and their concentrations quantified with detergent-compatible Bradford assay (Thermo Fisher Scientific). All Western blots were run on NuPAGE 4-12% Bis-Tris protein gels (Thermo Fisher Scientific) and transferred to […] nitrocellulose membranes (GE Healthcare). Membranes were stained with Ponceau S, blocked with 3% milk in PBS-T, and incubated overnight with primary antibody and subsequently with secondary antibody after brief washing with PBS-T. Chemiluminescence was determined by applying ECL Western Blotting detection reagent (GE Healthcare) to membranes and imaging on an Amersham Imager 600 (GE Healthcare). Membranes were stripped with Restore PLUS Stripping Buffer (Thermo Fisher Scientific); streptavidin-HRP was inactivated with 15% hydrogen peroxide. […]

[2] = system: HT1080 cells; experiment: Co-immunofluorescence/ATAC-see analysis; assay type: cell-based, human
Description: Co-immunofluorescence/ATAC-see analysis. ATAC-see was performed similarly as previously described with slight modifications (Chen et al., Nat. Methods 13:1013-1020, 2016). Enzyme and transposon DNA were mixed at a 1:1.25 enzyme:MEDS-A/B-AF647 molar ratio and incubated at room temperature for 1 hour. Adherent cells were grown on glass coverslips (Fisher Scientific, 12-540A) until 80-90% confluent, washed with 1×PBS, fixed with 1% formaldehyde (Electron Microscopy Services) in 1×PBS for 10 minutes, and washed twice with ice-cold 1×PBS. Suspension cells were washed and resuspended with 1×PBS. 50,000 cells were added to poly-lysine slides and incubated at room temperature for 1 hour in a humidified chamber. An equal volume of 2% formaldehyde was added and incubated for 10 minutes, whereupon slides were washed twice with ice-cold 1×PBS. Immobilized cells were lysed by incubation with LB1 for 3 minutes followed by LB2 for 10 minutes at room temperature. Cells were then subject to tagmentation (20% dimethylformamide, 10 mM MgCl2, 20 mM Tris-HCl pH 7.5, 33% 1×PBS, 0.01% digitonin, 0.1% Tween-20, and either 80 pmol enzyme equivalent of enzyme:DNA complex in a total volume of 100 μL for adherent cells or 10 pmol enzyme equivalent of enzyme:DNA complex in a total volume of 50 μL for suspension cells) for 30 minutes at 37° C. in a humidified chamber. Subsequently, cells were washed with 50 mM EDTA and 0.01% SDS in 1×PBS three times for 15 minute each at 55° C., lysed for 10 minutes with 0.5% Triton X-100 in 1×PBS at room temperature, and blocked with 1% BSA and 10% goat serum in PBS-T for 1 hour in a humidified chamber. Primary antibody was added to slides in 1% BSA/PBS-T and incubated at 4° C. overnight; slides were then washed and subjected to secondary antibody staining for 1 hour. Slides were washed with PBS-T three times for 15 minutes each, stained with DAPI (Sigma, 1 μg/mL) for 1 minute, washed with PBS for 10 minutes, and mounted with Fluorescence Mounting Medium (Dako). Confocal microscopy images were taken with an LSM 880 Axio Imager 2 at 63× magnification (Zeiss). Images were processed with Fiji/ImageJ v2.0.0.
Primary antibodies used were anti-RNA polymerase II CTD repeat YSPTSPS (phospho S2) (rabbit, Abcam ab5095, 1:500), anti-H3K27Ac (rabbit, Abcam ab4729, 1:500), anti-H3K9me3 (rabbit, Abcam ab8898, 1:500), anti-CCDCl2 (rabbit, Atlas Antibodies HPA060530, 1:200), anti-SNRPA (mouse, 3F9-1F7, Sigma-Aldrich WH0006626M1, 1:100). […]
Quantitative image analyses were performed with CellProfiler v3.1.5. […] Pearson correlation coefficients were determined by comparing ATAC-see pixel intensities with corresponding immunofluorescence intensity values within each ROI to assess the nucleus-to-nucleus variation in colocalization. […]

B1: TP3: Tn5 transposase-AEAAAKEAAAKA linker-APEX2 peroxidase fusion, C-terminal FLAG; amino acid SEQ ID NO: 27 (protein)
chain: MITSALHRAADWAKSVFSSAALGDPRRTARLVNVAAQLAKYSGKSITISSEGSKAMQEGAYRFIRNPNVSAEAIRKAGAMQTVKLAQEFPELLAIEDTTSLSYRHQVAEELGKLGSIQDKSRGWWVHSVLLLEATTFRTVGLLHQEWWMRPDDPADADEKESGKWLAAAATSRLRMGSMMSNVIAVCDREADIHAYLQDKLAHNERFVVRSKHPRKDVESGLYLYDHLKNQPELGGYQISIPQKGVVDKRGKRKNRPARKASLSLRSGRITLKQGNITLNAVLAEEINPPKGETPLKWLLLTSEPVESLAQALRVIDIYTHRWRIEEFHKAWKTGAGAERQRMEEPDNLERMVSILSFVAVRLLQLRESFTPPQALRAQGLLKEAEHVESQSAETVLTPDECQLLGYLDKGKRKRKEKAGSLQWAYMAIARLGGFMDSKRTGIASWGALWEGWEALQSKLDGFLAAKDLMAQGIKIAEAAAKEAAAKAGKSYPTVSADYQDAVEKAKKKLRGFIAEKRCAPLMLRLAFHSAGTFDKGTKTGGPFGTIKHPAELAHSANNGLDIAVRLLEPLKAEFPILSYADFYQLAGVVAVEVTGGPKVPFHPGREDKPEPPPEGRLPDPTKGSDHLRDVFGKAMGLTDQDIVALSGGHTIGAAHKERSGFEGPWTSNPLIFDNSYFTELLSGEKEGLLQLPSDKALLSDPVFRPLVDKYAADEDAFFADYAEAHQKLSELGFADADYKDDDDK
modifications: C-terminal FLAG
In the case of B1, the “biotinylation signal (streptavidin)” value [1] is reported as “highest signals”, the “ATAC-see correlation with H3K9me3 immunofluorescence” value ([2]; marker of transcriptionally inactive chromatin) is reported as “poorly correlating; also recorded: similarly poor correlations” and the “ATAC-see correlation with H3K27Ac and RNAPII S2P immunofluorescence signal” value ([2]; markers of transcriptionally active chromatin) is reported as “strongly correlating; also recorded: similarly positive correlations”.
